In the supplement of paper PMC9112550, “Optimization of the antimicrobial peptide Bac7 by deep mutational scanning” (BMC Biology, 2022):

Test system: Escherichia coli TOP10
Assay: shrunken log2 fold change of peptide-encoding DNA abundance (4.5 h post-induction vs induction); higher = less antimicrobial activity (less host growth inhibition)
Conditions: time post-induction: 4.5 h; library: site-saturation at positions 5, 18, 19, 20
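Note: peptides expressed intracellularly from a pBAD plasmid library in pooled LB shake-flask culture, induced with 0.3% L-arabinose, DNA abundance read by NGS, three biological replicates, DESeq2 with apeglm shrinkage.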

Row | Sequence | shrunken log2 fold change
1 | RRIRQRPPRLPRPRPRPMNAPRP | 0.0115
2 | RRIRVRPPRLPRPRPRPCFCPRP | -0.252
3 | RRIRFRPPRLPRPRPRPAWQPRP | 2.26
4 | RRIRCRPPRLPRPRPRPDINPRP | -0.294
5 | RRIRHRPPRLPRPRPRPHFQPRP | 0.0598
6 | RRIRWRPPRLPRPRPRPMNEPRP | 0.0689
7 | RRIRVRPPRLPRPRPRPMDRPRP | -0.308
8 | RRIRCRPPRLPRPRPRPFGCPRP | -0.308
9 | RRIRARPPRLPRPRPRPMMQPRP | 0.185
10 | RRIRTRPPRLPRPRPRPRLEPRP | 0.32
11 | RRIRNRPPRLPRPRPRPYTKPRP | -0.0607
12 | RRIRERPPRLPRPRPRPEPKPRP | 0.0877
13 | RRIRKRPPRLPRPRPRPASMPRP | 0.116
14 | RRIRERPPRLPRPRPRPGLEPRP | -0.114
15 | RRIRERPPRLPRPRPRPHHKPRP | -0.449
16 | RRIRERPPRLPRPRPRPGQKPRP | 0.2
17 | RRIRGRPPRLPRPRPRPNQWPRP | 0.259
18 | RRIRKRPPRLPRPRPRPIRIPRP | -0.0265
19 | RRIRQRPPRLPRPRPRPSYIPRP | -0.417
20 | RRIRWRPPRLPRPRPRPHHMPRP | -0.592
21 | RRIRNRPPRLPRPRPRPWPCPRP | -0.185
22 | RRIRCRPPRLPRPRPRPIWKPRP | 0.0906
23 | RRIRRRPPRLPRPRPRPSIHPRP | -0.337

Row | Sequence | shrunken log2 fold change
24 | RRIRIRPPRLPRPRPRPSRKPRP | -0.148
25 | RRIRTRPPRLPRPRPRPQIVPRP | 0.0532
26 | RRIRNRPPRLPRPRPRPDFFPRP | -0.138
27 | RRIRHRPPRLPRPRPRPKTCPRP | -0.0999
28 | RRIRDRPPRLPRPRPRPRAKPRP | 0.208
29 | RRIRWRPPRLPRPRPRPGCKPRP | 0.123
30 | RRIRMRPPRLPRPRPRPVARPRP | 0.407
31 | RRIRFRPPRLPRPRPRPTVQPRP | 0.0692
32 | RRIRQRPPRLPRPRPRPRPRPRP | 0.414
33 | RRIRNRPPRLPRPRPRPPVTPRP | 0.228
34 | RRIRTRPPRLPRPRPRPGNTPRP | -0.0393
35 | RRIRYRPPRLPRPRPRPSCKPRP | -0.908
36 | RRIRNRPPRLPRPRPRPMLAPRP | -0.053
37 | RRIRKRPPRLPRPRPRPFNQPRP | -0.0503
38 | RRIRGRPPRLPRPRPRPWWYPRP | -0.119
39 | RRIRMRPPRLPRPRPRPKIAPRP | 0.244
40 | RRIRKRPPRLPRPRPRPWPMPRP | 0.915
41 | RRIRVRPPRLPRPRPRPNHCPRP | -0.181
42 | RRIRRRPPRLPRPRPRPYHFPRP | -0.116
43 | RRIRERPPRLPRPRPRPWCRPRP | -0.126
44 | RRIRMRPPRLPRPRPRPYLAPRP | -0.0134
45 | RRIRVRPPRLPRPRPRPPEQPRP | 0.0662
46 | RRIRVRPPRLPRPRPRPDMVPRP | -0.0411

Row | Sequence | shrunken log2 fold change
47 | RRIRSRPPRLPRPRPRPRISPRP | 0.0353
48 | RRIRQRPPRLPRPRPRPFPVPRP | 0.0568
49 | RRIRARPPRLPRPRPRPISFPRP | 0.323
50 | RRIRFRPPRLPRPRPRPKGLPRP | -0.146
51 | RRIRERPPRLPRPRPRPSNSPRP | -0.0251
52 | RRIRRRPPRLPRPRPRPCNMPRP | -0.152
53 | RRIRIRPPRLPRPRPRPEANPRP | -0.00444
54 | RRIRRRPPRLPRPRPRPGMAPRP | 0.339
55 | RRIRHRPPRLPRPRPRPDPLPRP | -0.106
56 | RRIRERPPRLPRPRPRPYTNPRP | -0.172
57 | RRIRRRPPRLPRPRPRPQQYPRP | -0.0784
58 | RRIRFRPPRLPRPRPRPASFPRP | 0.279
59 | RRIRNRPPRLPRPRPRPIPCPRP | -0.0228
60 | RRIRVRPPRLPRPRPRPNFWPRP | 0.137
61 | RRIRFRPPRLPRPRPRPVHFPRP | -0.263
62 | RRIRHRPPRLPRPRPRPCMTPRP | 0.0183
63 | RRIRRRPPRLPRPRPRPKKCPRP | -0.325
64 | RRIRFRPPRLPRPRPRPGSYPRP | -0.0318
65 | RRIRNRPPRLPRPRPRPTGFPRP | -0.0139
66 | RRIRPRPPRLPRPRPRPKWVPRP | 0.111
67 | RRIRRRPPRLPRPRPRPWHQPRP | -0.111
68 | RRIRCRPPRLPRPRPRPPTAPRP | 0.272
69 | RRIRWRPPRLPRPRPRPNLPPRP | -0.101

Row | Sequence | shrunken log2 fold change
70 | RRIRNRPPRLPRPRPRPFRIPRP | -0.0132
71 | RRIRNRPPRLPRPRPRPETFPRP | 0.00884
72 | RRIRGRPPRLPRPRPRPKQPPRP | 1.08
73 | RRIRHRPPRLPRPRPRPIFQPRP | 0.153
74 | RRIRDRPPRLPRPRPRPAYNPRP | -0.764
75 | RRIRTRPPRLPRPRPRPSRLPRP | 0.0405
76 | RRIRGRPPRLPRPRPRPEGQPRP | 1.13
77 | RRIRTRPPRLPRPRPRPNEGPRP | -0.191
78 | RRIRDRPPRLPRPRPRPFNDPRP | -0.158
79 | RRIRDRPPRLPRPRPRPWSDPRP | -0.0204
80 | RRIRRRPPRLPRPRPRPSPNPRP | 0.396
81 | RRIRPRPPRLPRPRPRPNPRPRP | 0.596
82 | RRIRSRPPRLPRPRPRPNMIPRP | -0.429
83 | RRIRQRPPRLPRPRPRPPWIPRP | -0.145
84 | RRIRCRPPRLPRPRPRPHKAPRP | -0.253
85 | RRIRRRPPRLPRPRPRPLFQPRP | 0.246
86 | RRIRTRPPRLPRPRPRPHTHPRP | -0.873
87 | RRIRSRPPRLPRPRPRPGAIPRP | 0.187
88 | RRIRKRPPRLPRPRPRPQCKPRP | 0.0757
89 | RRIRFRPPRLPRPRPRPITWPRP | -0.972
90 | RRIRERPPRLPRPRPRPLAIPRP | -0.56
91 | RRIRCRPPRLPRPRPRPTLKPRP | 0.017
